Assay [1] concerns the target T1, human prostate specific membrane antigen (PSMA), full-length, on cells (human, UniProt Q04609 1-750). Description: cell-based or functional assay.
The target of assay [2] is T1, human prostate specific membrane …. Nature of the assay: cell-based or functional assay. This is another data set of the same source.
Assay [3] has the same target. Nature of the assay: FMAT direct cell binding, human PSMA-CHO cells.
Assay [4] shares this target. Nature of the assay: cell-based or functional assay. The source holds these as a separate data set.
The target in assay [5] is T2, cynomolgus PSMA, full-length, on CHO cells (cynomolgus, UniProt A0A2K5VNZ0 1-750). Description: cell-based or functional assay.
The target in assay [6] is T1, human prostate specific membrane …. Nature of the assay: FMAT direct cell binding, CHO human PSMA cells.
Assay [7] has the same target. Description: FMAT direct cell binding, DU145 PSMA cells.
For assay [8] the target is unchanged. Description: FMAT direct cell binding, LNCap cells.
For assay [9], the target named is T2, cynomolgus PSMA, full-length, on CHO …. Description: FMAT direct cell binding, CHO cyno PSMA cells.
Assay [10] deals with T1, human prostate specific membrane …. Nature of the assay: cell-based or functional assay. The source holds these as a separate data set.
Assay [11] concerns the target T3, recombinant human PSMA (R&D, cat. no. 4234-ZN) (human, UniProt Q04609 44-750).
T3 construct: Bought protein; also called rhPSMA; Recombinant PMSA
Description: Octet RED384 BLI, PSMA on sensor, VH series from 0.375 ug/ml. (In BLI a coated tip is dipped into the sample, and binding shifts an interference pattern.)

Assay [12] addresses T1, human prostate specific membrane …. Nature of the assay: cell-based or functional assay. This is another data set of the same source.
Assay [13] concerns the target T3, recombinant human PSMA (R&D, cat. no. …). Description: Octet RED384 BLI, PSMA on sensor, VH series from 0.375 ug/ml. The source holds these as a separate data set.

As a reminder, the EC50 is the concentration needed to bring the measured effect to its halfway point. A higher EC50 goes with a need for much substance. Usually Kd stands for the free concentration of one partner at which half of the binding sites on the other are occupied at equilibrium, for simple one-to-one binding. A word on the koff: it is the rate constant with which the complex falls apart.

Where two headings read alike, the source gives them in different places.

T1 sequence (Q04609 whole entry): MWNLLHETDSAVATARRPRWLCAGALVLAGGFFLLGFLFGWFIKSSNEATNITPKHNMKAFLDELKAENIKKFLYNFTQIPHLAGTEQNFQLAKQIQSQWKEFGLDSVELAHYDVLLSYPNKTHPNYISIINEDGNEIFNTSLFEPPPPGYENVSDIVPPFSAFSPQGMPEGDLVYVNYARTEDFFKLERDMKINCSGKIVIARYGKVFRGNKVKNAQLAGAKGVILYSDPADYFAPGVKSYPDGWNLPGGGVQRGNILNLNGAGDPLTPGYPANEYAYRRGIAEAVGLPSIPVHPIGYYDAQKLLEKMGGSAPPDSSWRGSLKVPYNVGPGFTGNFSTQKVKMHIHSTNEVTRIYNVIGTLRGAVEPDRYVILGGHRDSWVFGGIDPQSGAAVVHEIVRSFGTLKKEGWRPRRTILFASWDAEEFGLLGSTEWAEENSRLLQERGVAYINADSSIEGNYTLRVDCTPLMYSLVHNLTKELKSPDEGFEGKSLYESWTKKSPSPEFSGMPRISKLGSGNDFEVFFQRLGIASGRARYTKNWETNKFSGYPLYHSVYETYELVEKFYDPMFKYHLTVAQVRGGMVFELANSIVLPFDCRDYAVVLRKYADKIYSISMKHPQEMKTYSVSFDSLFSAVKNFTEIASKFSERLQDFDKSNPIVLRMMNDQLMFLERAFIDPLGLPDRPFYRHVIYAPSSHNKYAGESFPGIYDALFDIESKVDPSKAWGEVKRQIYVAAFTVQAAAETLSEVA
T3 sequence (Q04609 44-750 limits assumed): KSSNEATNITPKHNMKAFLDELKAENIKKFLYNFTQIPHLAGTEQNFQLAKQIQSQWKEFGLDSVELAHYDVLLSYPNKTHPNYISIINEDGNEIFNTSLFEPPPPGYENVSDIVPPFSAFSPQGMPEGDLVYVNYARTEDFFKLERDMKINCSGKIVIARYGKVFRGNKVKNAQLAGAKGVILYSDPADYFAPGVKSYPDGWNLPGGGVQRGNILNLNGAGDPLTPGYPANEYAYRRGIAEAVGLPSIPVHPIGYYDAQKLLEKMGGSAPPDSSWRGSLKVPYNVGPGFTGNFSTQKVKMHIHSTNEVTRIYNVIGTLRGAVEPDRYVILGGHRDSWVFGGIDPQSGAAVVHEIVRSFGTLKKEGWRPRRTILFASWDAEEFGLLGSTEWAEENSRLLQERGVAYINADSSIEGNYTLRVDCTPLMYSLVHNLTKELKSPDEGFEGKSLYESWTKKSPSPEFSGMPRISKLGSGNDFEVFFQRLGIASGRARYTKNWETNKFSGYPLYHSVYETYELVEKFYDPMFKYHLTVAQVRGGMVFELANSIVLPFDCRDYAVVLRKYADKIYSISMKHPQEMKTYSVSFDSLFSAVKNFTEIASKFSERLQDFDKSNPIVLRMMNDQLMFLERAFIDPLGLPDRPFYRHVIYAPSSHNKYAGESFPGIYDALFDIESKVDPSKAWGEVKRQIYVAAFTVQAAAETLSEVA

B1: HiPEG B-2-A-His6 val-cit-PAB-MMAE (bispecific antibody)
chain: EVQLLESGGGLVQPGGSLRLSCAASGFSFSSYAMSWVRQAPGKGLEWVSSIGENDGTTDYADSVKGRFTISRDNSKSMLYLQMNSLRVEDTAVYYCVKDGVHWGQGTLVTVSSGGGGSGGGGSGGGGSGGGGSGGGGSGGGGSEVQLVESGGGVVQPGRSLRLSCAASGFSFSGYGMHWVRQAPGKGLEWVAYISYDGSNKYYADSVKGRFTISRDNSKNTLYLQMNSLRAEDTAVYYCAKDPAWGLRLGESSSYDFDIWGQGTMVTVSS
modifications: HiPEG val-cit-PAB-MMAE attached via the C-terminal His6-tag, DAR 1
Turning to B1, in [1], the “IC50 (nM), PSMA-DU145 cytotoxicity assay (72 h)” value stood at 0.27 nM and the “IC50 (toxin) (nM), PSMA-DU145 cytotoxicity assay (72 h)” value came out at 0.27 nM. Also, in assay [2], the “IC50 Toxin (nM), DU145 PSMA cells, 48 h” value stood at 0.15 nM; the “Mean IC50, cytotoxicity on DU145 PSMA cells, 48 h” value was found to be 0.15 nM; the “Mean Max % Cell kill, DU145 PSMA cells, 48 h” value turned out to be 79%.

B2: 1.16-6GS-2.22 (bispecific antibody)
chain: EVQLLESGGGLVQPGGSLRLSCAASGFSFSSYALSWVRQAPGKGLEWVSSIGENNHTTDYADTVKGRFTISRDNSKNTLYLQMNSLRVEDTAVYYCVKDGVHWGQGTLVTVSSGGGGSGGGGSGGGGSGGGGSGGGGSGGGGSEVQLVESGGGVVQPGRSLRLSCAASGFSFSGYGTHWVRQAPGKGLEWVAYISYDGSNKYYAAPVKGRFTISRDNSKNTLYLQMNSLRAEDTAVYYCAKDAAWGLRLGESSSYDFDIWGQGTMVTVSS
notes: linker (G4S)6
In [3], B2 yielded a 50% effective concentration (EC50) of 0.225 nM. Further, in assay [4], the “His-ZAP cell killing, human PSMA Average EC50” value is 0.02 nM. The “His-ZAP cell killing, cyno PSMA Average EC50” value in assay [5] stood at 0.011 nM.

B3: 1.18-6GS-2.22 (bispecific antibody)
chain: EVQLLESGGGLVQPGGSLRLSCAASGFSFSSYALSWVRQAPGKGLEWVSSIGENNATTDYAASVKGRFTISRDNSKNTLYLQMNSLRVEDTAVYYCVKDGVHWGQGTLVTVSSGGGGSGGGGSGGGGSGGGGSGGGGSGGGGSEVQLVESGGGVVQPGRSLRLSCAASGFSFSGYGTHWVRQAPGKGLEWVAYISYDGSNKYYAAPVKGRFTISRDNSKNTLYLQMNSLRAEDTAVYYCAKDAAWGLRLGESSSYDFDIWGQGTMVTVSS
notes: linker (G4S)6
Molecule B3 showed an EC50 in [3] of 0.196 nM. Further, in assay [4], the “His-ZAP cell killing, human PSMA Average EC50” value came to 0.015 nM. Besides, the “His-ZAP cell killing, cyno PSMA Average EC50” value in assay [5] stood at 0.014 nM.

B4: 1.18-6GS-2.1 (bispecific antibody)
chain: EVQLLESGGGLVQPGGSLRLSCAASGFSFSSYALSWVRQAPGKGLEWVSSIGENNATTDYAASVKGRFTISRDNSKNTLYLQMNSLRVEDTAVYYCVKDGVHWGQGTLVTVSSGGGGSGGGGSGGGGSGGGGSGGGGSGGGGSEVQLVESGGGVVQPGRSLRLSCAASGFSFSGYGMHWVRQAPGKGLEWVAYISYDGSNKYYADSVKGRFTISRDNSKNTLYLQMNSLRAEDTAVYYCAKDPAWGLRLGESSSYDFDIWGQGTMVTVSS
notes: linker (G4S)6
B4 showed a concentration for a half-maximal effect (EC50) in assay [3] of 0.294 nM. For the same molecule, the “His-ZAP cell killing, human PSMA Average EC50” value in assay [4] amounted to 0.0057 nM. Besides, the “His-ZAP cell killing, cyno PSMA Average EC50” value in assay [5] is 0.0058 nM.

B5: 1.18-6GS-2.17 (bispecific antibody)
chain: EVQLLESGGGLVQPGGSLRLSCAASGFSFSSYALSWVRQAPGKGLEWVSSIGENNATTDYAASVKGRFTISRDNSKNTLYLQMNSLRVEDTAVYYCVKDGVHWGQGTLVTVSSGGGGSGGGGSGGGGSGGGGSGGGGSGGGGSEVQLVESGGGVVQPGRSLRLSCAASGFSFSGYGMHWVRQAPGKGLEWVAYISYDASNKYYADNVKGRFTISRDNSKNTLYLQMNSLRAEDTAVYYCAKDPAWGLRLGESSSYDFDIWGQGTMVTVSS
notes: linker (G4S)6
Take B5: in assay [3], a half-maximal effect (EC50) was put at 0.278 nM. The “His-ZAP cell killing, human PSMA Average EC50” value in [4] is 0.012 nM. In addition, in assay [5], the “His-ZAP cell killing, cyno PSMA Average EC50” value is 0.0056 nM.

B6: 1.11-6GS-2.22 (bispecific antibody)
chain: EVQLLESGGGLVQPGGSLRLSCAASGFSFSSYALSWVRQAPGKGLEWVSSIGENNDTTDYADNVKGRFTISRDNSKNTLYLQMNSLRVEDTAVYYCVKDGVHWGQGTLVTVSSGGGGSGGGGSGGGGSGGGGSGGGGSGGGGSEVQLVESGGGVVQPGRSLRLSCAASGFSFSGYGTHWVRQAPGKGLEWVAYISYDGSNKYYAAPVKGRFTISRDNSKNTLYLQMNSLRAEDTAVYYCAKDAAWGLRLGESSSYDFDIWGQGTMVTVSS
notes: linker (G4S)6; also called 1.11-2.22; 1.11-6GS-2.22His
For B6, the response in assay [3] was half-maximal at 0.219 nM (EC50). Also, in [4], the “His-ZAP cell killing, human PSMA Average EC50” value came out at 0.01 nM. Moreover, the “His-ZAP cell killing, cyno PSMA Average EC50” value in assay [5] is 0.0095 nM.

B7: single VH domain antibody 1.10 (VHH)
VHH: EVQLLESGGGLVQPGGSLRLSCAASGFSFSSYALSWVRQAPGKGLEWVSSIGENNATTDYADFVKGRFTISRDNSKNTLYLQMNSLRVEDTAVYYCVKDGVHWGQGTLVTVSS
notes: Human single VH domain antibody (Humabody)
With B7, the EC50 in assay [6] was determined as 0.0718 nM; in [7] it was 0.067 nM; in assay [8], 0.133 nM; in assay [9], 0.152 nM. Also, the “His-ZAP cell killing, human PSMA Average EC50” value in assay [4] came to 0.021 nM. The “His-ZAP cell killing, cyno PSMA EC50” value in assay [5] was 1.3 nM. The “pHrodo Green internalization assay, human PSMA Average EC50 (M)” value (shortened to “pHrodo Green internalization assay”) in assay [10] was 6.4e-10 M. Also, in assay [11], the Kd came out at 0.67 nM. Moreover, the off-rate (koff) in assay [11] was 0.000418 s⁻¹.

B8: HiPEG B-His6 val-cit-PAB-MMAE (VHH)
VHH: EVQLLESGGGLVQPGGSLRLSCAASGFSFSSYAMSWVRQAPGKGLEWVSSIGENDGTTDYADSVKGRFTISRDNSKSMLYLQMNSLRVEDTAVYYCVKDGVHWGQGTLVTVSS
modifications: HiPEG val-cit-PAB-MMAE attached via the C-terminal His6-tag, DAR 0.9
For B8, in assay [2], the “IC50 Toxin (nM), DU145 PSMA cells, 48 h” value amounted to 2.43 nM; the “Mean IC50, cytotoxicity on DU145 PSMA cells, 48 h” value was determined as 2.7 nM; the “Mean Max % Cell kill, DU145 PSMA cells, 48 h” value was found to be 73%. In assay [12], the “IC50 (nM), cytotoxicity on DU145 PSMA cells, 72 h” value was determined as 4.1 nM and the “IC50 (toxin) nM, DU145 PSMA cells, 72 h” value was found to be 3.69 nM.

B9: single VH domain antibody 1.13 (VHH)
VHH: EVQLLESGGGLVQPGGSLRLSCAASGFSFSSYALSWVRQAPGKGLEWVSSIGENNHTTDYAADVKGRFTISRDNSKNTLYLQMNSLRVEDTAVYYCVKDGVHWGQGTLVTVSS
notes: as for B7
As to B9, the half-maximal effective concentration (EC50) in assay [6] was found to be 0.0513 nM; in assay [7] it was 0.0456 nM; in assay [8] it was 0.0386 nM; in assay [9] it was 0.115 nM.

B10: single VH domain antibody 1.14 (VHH)
VHH: EVQLLESGGGLVQPGGSLRLSCAASGFSFSSYALSWVRQAPGKGLEWVSSIGENNATTDYADVVKGRFTISRDNSKNTLYLQMNSLRVEDTAVYYCVKDGVHWGQGTLVTVSS
notes: as for B7
With B10, the 50% effective concentration (EC50) stood at 0.0588 nM in [6], 0.052 nM in assay [7], 0.0833 nM in [8] and 0.145 nM in [9]. In addition, the “His-ZAP cell killing, human PSMA Average EC50” value in assay [4] was determined as 0.017 nM. Further, in [5], the “His-ZAP cell killing, cyno PSMA EC50” value was 0.79 nM. Besides, in assay [10], the “pHrodo Green internalization assay” value came to 4.4e-10 M. Besides, the Kd in assay [11] came out at 0.46 nM. Further, the off-rate (koff) in assay [11] came out at 0.000335 s⁻¹.

B11: single VH domain antibody 2.12 (VHH)
VHH: EVQLVESGGGVVQPGRSLRLSCAASGFSFSGYGMHWVRQAPGKGLEWVAYISYDKSNKYYADKVKGRFTISRDNSKNTLYLQMNSLRAEDTAVYYCAKDPAWGLRLGESSSYDFDIWGQGTMVTVSS
notes: Human single VH domain antibody (Humabody); C-terminal His tag, residues not tied
Turning to B11, in [4], the “His-ZAP cell killing, human PSMA Average EC50” value stood at 0.016 nM. Moreover, the “His-ZAP cell killing, cyno PSMA EC50” value in assay [5] amounted to 0.091 nM. Moreover, in [13], the equilibrium dissociation constant (Kd) was 1.56 nM and the off-rate (koff) stood at 0.00157 s⁻¹. For the same molecule, in assay [10], the “pHrodo Green internalization assay” value was 5.3e-10 M.

B12: single VH domain antibody 2.13 (VHH)
VHH: EVQLVESGGGVVQPGRSLRLSCAASGFSFSGYGLHWVRQAPGKGLEWVAYISYDASNKYYADNVKGRFTISRDNSKNTLYLQMNSLRAEDTAVYYCAKDPAWGLRLGESSSYDFDIWGQGTMVTVSS
notes: as for B11
B12: the “His-ZAP cell killing, human PSMA Average EC50” value in assay [4] came to 0.027 nM. Also, the “His-ZAP cell killing, cyno PSMA EC50” value in [5] stood at 0.08 nM. In addition, in assay [13], the Kd is 0.99 nM and the koff turned out to be 0.000743 s⁻¹. In assay [10], the “pHrodo Green internalization assay” value worked out at 5.8e-10 M.

B13: single VH domain antibody 2.14 (VHH)
VHH: EVQLVESGGGVVQPGRSLRLSCAASGFSFSGYGVHWVRQAPGKGLEWVAYISYDASNKYYADNVKGRFTISRDNSKNTLYLQMNSLRAEDTAVYYCAKDPAWGLRLGESSSYDFDIWGQGTMVTVSS
notes: as for B11
Take B13: the concentration for a half-maximal effect (EC50) in [6] came to 0.11 nM; in [7] it was 0.202 nM; in [8], 0.0332 nM; in assay [9], 0.427 nM.

B14: single VH domain antibody 2.18 (VHH)
VHH: EVQLVESGGGVVQPGRSLRLSCAASGFSFSGYGQHWVRQAPGKGLEWVAYISYDASNKYYADNVKGRFTISRDNSKNTLYLQMNSLRAEDTAVYYCAKDPAWGLRLGESSSYDFDIWGQGTMVTVSS
notes: as for B11
With B14, the concentration giving a half-maximal response (EC50) in assay [6] was determined as 0.104 nM; in assay [7] it was 0.25 nM; in assay [8] it was 0.0354 nM; in [9] it was 0.337 nM.
